Test results: patent US6132976
Non-standard residues stand in square brackets, D forms with d. No end group written: not given here. Hyp = O=C(O)[C@@H]1C[C@@H](O)CN1

Columns and labels:
[1] = molecular target: native helical type II collagen
[2] = molecular target: heat denatured type II collagen (HDC)
[3] = molecular target: monoclonal antibody COL2-3/4m; test: inhibition ELISA with COL2-3/4m, HDC on the plate; sample incubated in Tris/CaCl2 without collagenase

## α-chymotrypsin (enzyme)
[1]
  [CB11B] BY INHIBITION ASSAY (µg/ml) of NC + 500 µg/ml CHYMOTRYPSIN: 0 µg/mL

## chromatographically purified collagenase form III from Clostridium histolyticum (enzyme)
[2]
  [α1(II)-CB11B] by immunoassay (µg/ml) after treatment: 0.84 µg/mL

## CGKVGPSGA[Hyp]GEDGR[Hyp]GP[Hyp]GPQY [synthetic peptide CB11B]
[3]
  [α1(II)-CB11B] by immunoassay: 4.44 µg/mL
